Where a chain is given by its changes, count along the chain named.

B1: H12L64 (antibody, human IgG1, kappa, V domains shown)
VH: QVQLVQSGAEVKKPGASVKVSCKASGYTFTSYWMHWVRQAPGQGLEWMGRITPSSGFAMYNEKFKNRVTMTRDTSTSTVYMELSSLRSEDTAVYYCARGGSSYDYFDYWGQGTTVTVSS
VL: DIVLTQSPASLAVSPGQRATITCRASESVSIHGTHLMHWYQQKPGQPPKLLIYVASYAASGVPARFSGSGSGTDFTLTINPVEAEDTANYYCQQSFEDPLTFGQGTKLEIKR
notes: from the HRP00052 mutant library; also called 24D5 H12 and 24D5 L64
B2: H18L61 (antibody, human IgG1, kappa, V domains shown)
VH: B1 VH with T52S, F57M, M59V
VL: B1 VL with V54A, Y57N, A58L, A59E
notes: also called 24D5 H18 and 24D5 L61
B3: H6L11 (antibody, human IgG1, kappa, V domains shown)
VH: QVQLQESGPGLVKPSQTLSLTCTVSGGSISNDYWTWIRQHPGKGLEYIGFISRAGSTYNTPSLKGRVTISRDTSKNQFSLKLSSVTAADTAVYYCARSGGWLAPFDYWGRGTLVTVSS
VL: DIVMTQSPDSLAVSLGERATINCKSSQSLFYHSNQKHSLAWYQQKPGQPPKLLIYGASTRESGVPDRFSGSGSGTDFTLTISSLQAEDVAVYYCQQYYGYPYTFGGGTKVEIKR
notes: also called 9-2 H6 and 9-2 L11
B4: H5L11 (antibody, human IgG1, kappa, V domains shown)
VH: QVQLQESGPGLVKPSQTLSLTCTVSGGSISDGSAYWSWIRQHPGKGLEYIGFISRAGSTYNTPSLKGRVTISRDTSKNQFSLKLSSVTAADTAVYYCARSGGWLAPFDYWGRGTLVTVSS
VL: B3 VL
notes: from the HRP00049 mutant library; also called 9-2 H5 and 9-2 L11

T1 sequence (Q9NZQ7 19-239 limits assumed): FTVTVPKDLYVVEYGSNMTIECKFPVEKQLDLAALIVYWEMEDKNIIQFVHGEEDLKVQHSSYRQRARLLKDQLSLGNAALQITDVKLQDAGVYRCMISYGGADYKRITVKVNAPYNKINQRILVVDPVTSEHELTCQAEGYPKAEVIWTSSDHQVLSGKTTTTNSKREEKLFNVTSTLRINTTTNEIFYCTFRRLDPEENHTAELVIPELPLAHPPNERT
Chain of mouse PD-L1 (ligand blocking test) (Q9EP73 19-238 limits assumed): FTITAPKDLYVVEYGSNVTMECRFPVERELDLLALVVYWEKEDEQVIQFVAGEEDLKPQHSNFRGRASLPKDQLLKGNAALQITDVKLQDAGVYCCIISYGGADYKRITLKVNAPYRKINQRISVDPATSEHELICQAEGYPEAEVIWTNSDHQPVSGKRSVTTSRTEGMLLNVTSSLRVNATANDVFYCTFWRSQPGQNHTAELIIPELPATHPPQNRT

One assay concerns the target T1, human PD-L1 (Cat. #10084-H08H, Sino Biological) (human, UniProt Q9NZQ7 19-239).
T1 construct: Bought recombinant protein used in the Biacore test; also called hPDL1; hPD-L1
In words: SPR, Biacore X100, 1:1 Langmuir. As to the method: (§1) According to the method in the manual of human anti-capture kit (Cat. A BR-1008-39, GE), the human anti-capture antibody was covalently coupled to biosensor chip CM5 (Cat. #BR-1000-12, GE) so that a certain amount of human PD-L1 (Cat. #10084-H08H, Sino Biological) monkey PD-L1 (Cat. #90251-C08H, Sino Biological), mouse PD-L1 (Cat. #50010-M08H, Sino Biological) were affinity captured. The affinity of PD-L1 antibody reacting with PD-L1 was measured with Biacore X100, GE instrument.
The term Kd denotes the constant that tells how readily two partners part at equilibrium. As usually defined, the koff is a measure of how fast the partners let go of each other. By kon is commonly meant a measure of how fast the partners come together. Regarding B1, the Kd is 0.0326 nM, the koff was determined as 7.1e-05 s⁻¹ and the on-rate constant (kon) turned out to be 2.18e+06 M⁻¹ s⁻¹.
The corresponding values for B2 are 0.033 nM, 5.63e-05 s⁻¹ and 1.71e+06 M⁻¹ s⁻¹.
The corresponding values for B3 are 0.227 nM, 0.000113 s⁻¹ and 495000 M⁻¹ s⁻¹.
The corresponding values for B4 are 0.203 nM, 0.000124 s⁻¹ and 611000 M⁻¹ s⁻¹.

The target in a further assay is T2, monkey PD-L1 (Cat. #90251-C08H, Sino Biological) (monkey (cyno), UniProt G7PSE7 19-239).
T2 construct: Bought recombinant protein used in the Biacore test; also called Monkey (cyno) PD-L1; Cyno PDL1
T2 sequence (G7PSE7 entry or part of it C08H C08H): as the sequence (Q9NZQ7 19-239 limits assumed) above, with A33T, A34S, S62N, R68Q, Q82R, F173L, T185A, T192I, H215L counted along it
Briefly: SPR, Biacore X100, 1:1 Langmuir. The protocol: as §1
On the technique in general: Surface plasmon resonance follows binding to a sensor surface in real time, without labels.
B1: the affinity, expressed as Kd, was 0.0458 nM; the koff is 8.38e-05 s⁻¹; the kon turned out to be 1.83e+06 M⁻¹ s⁻¹.
B2 gave a Kd of 0.048 nM, a koff of 7.68e-05 s⁻¹ and a kon of 1.6e+06 M⁻¹ s⁻¹.
The corresponding values for B3 are 0.318 nM, 0.000151 s⁻¹ and 474000 M⁻¹ s⁻¹.
In the same order, the values of B4 are 0.211 nM, 0.000121 s⁻¹ and 572000 M⁻¹ s⁻¹.

For a further assay, the target named is T3, mouse PD-L1 (Cat. #50010-M08H, Sino Biological) (mouse, UniProt Q9EP73 19-238).
T3 construct: Bought recombinant protein used in the Biacore test
T3 sequence (Q9EP73 19-238 limits assumed, stated change not applied): as the sequence (Q9EP73 19-238 limits assumed) above
Briefly: SPR, Biacore X100, 1:1 Langmuir. The protocol:
as §1
Molecule B3 had a Kd of 18.1 nM, a koff of 0.0119 s⁻¹ and a kon of 655000 M⁻¹ s⁻¹.
In the same order, the values of B4 are 69.6 nM, 0.0564 s⁻¹ and 811000 M⁻¹ s⁻¹.

Another assay concerns the target mouse PD-L1 (ligand blocking test) (mouse, UniProt Q9EP73 19-238, limits assumed). In words: blocking of mouse PD-L1/PD-1 binding, PD-L1 5 ug/ml; competitor PD-1.
In general, IC50 refers to the point on the concentration scale where inhibition reaches its midpoint. The molecule B3 yielded an IC50 of 1.23 ng/mL.
For the molecule B4, the IC50 is 0.927 ng/mL.

Another assay deals with T4, human PD-L1 (ligand blocking test) (human, UniProt Q9NZQ7 19-238, limits assumed). Briefly: blocking of human PD-L1/PD-1 binding, PD-L1 10 ug/ml; competitor PD-1.
T4 sequence (Q9NZQ7 19-238 limits assumed): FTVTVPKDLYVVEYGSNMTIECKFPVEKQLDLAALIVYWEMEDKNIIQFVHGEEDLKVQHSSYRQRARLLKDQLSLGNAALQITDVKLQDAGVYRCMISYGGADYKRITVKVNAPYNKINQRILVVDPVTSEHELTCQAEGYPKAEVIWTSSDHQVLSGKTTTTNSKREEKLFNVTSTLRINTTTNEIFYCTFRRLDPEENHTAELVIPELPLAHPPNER
Molecule B1 showed an IC50 of 0.215 ng/mL.
Same read-out and setting: the result for B2 reads 0.228 ng/mL; that for B3, 0.29 ng/mL; that for B4, 0.168 ng/mL.

The target in another assay is T4, human PD-L1 (ligand blocking test). Briefly: blocking of B7-1 binding to human PD-L1, PD-L1 1 ug/ml; competitor B7-1.
B1 registered an IC50 of 0.826 ng/mL.
On to B2, for which the IC50 turned out to be 1.38 ng/mL.
B3 yielded an IC50 of 1.69 ng/mL.
On the same count and under the same terms, the result for B4 reads 1.45 ng/mL.

These data come from patent publication US20200339692A1 (JIANGSU HENGRUI MEDICINE, published 2020).
